In the supplement of paper PMC10567573:
± gives the standard deviation.

Assay: protein stability index of a GFP-peptide fusion (GPS, HEK-293T) (PSI 1-6); higher = more stable
[1] = treatment: DMSO, c terminus: a fixed tail appended
[2] = treatment: MLN4924 1 uM, 8 h, c terminus: a fixed tail appended
[3] = treatment: DMSO, c terminus: native
[4] = treatment: MLN4924 1 uM, 8 h, c terminus: native
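Note: 24-mer peptide tiles fused after GFP, lentivirally expressed, FACS-sorted into six equal bins by GFP/DsRed ratio, decoded by Illumina sequencing, PSI is the read-weighted mean bin number.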

Sequence | protein stability index [1] | protein stability index [2] | protein stability index [3] | protein stability index [4]
KSIGSEPHEDHVFLVANFSQIETL [MATN2] | 2.92 ± 0.47 | 2.8 ± 0.25 |  | 
KSKTRSLLKRMESLKLKSSHHSKH [DLC1] | 3.48 ± 0.14 | 3.53 ± 0.16 |  | 
KSSSSSSSSSSSSSSSSSSSSSGP [TMEM40] | 5.29 ± 0.15 | 5.3 ± 0.1 |  | 
KSVLKSDEEHMEEAITSASFLEQI [FAM189A2] | 4.76 ± 0.31 | 4.85 ± 0.2 |  | 
KSVQHVVLQALFYLLDRAVDSFET [PTPN9] | 3.21 ± 0.38 | 2.58 ± 0.41 |  | 
KTTIPEEEEEEEEAAGVVVEEELF [LMNB1] | 5.55 ± 0.29 | 5.62 ± 0.2 |  | 
KTVDKHSDEYKIRRERNNIAVRKS [CEBPB] | 4.59 ± 0.17 | 4.79 ± 0.39 |  | 
KVQDALQNQSDSLLALAGAVQRLE [SCARA5] | 3.16 ± 0.24 | 3.29 ± 0.33 |  | 
KVVLIGDSGVGKSNLLSRFTRNEF [RAB11A] | 2.33 ± 0.19 | 2.28 ± 0.39 |  | 
KWLLWTEHQYRLPPMGKAFQELAG [SPDEF] | 2.44 ± 0.55 | 2.16 ± 0.48 |  | 
KYDMEVRVQKTSKELEDMNQKLFD [TNNI2] | 4.81 ± 0.13 | 4.73 ± 0.2 |  | 
LADKELVHMISWAKKIPGMRGNA [ESR2] |  |  | 2.95 ± 0.85 | 2.56 ± 0.7
LAIKKQQHIDNITQIEDATEKLKA [TRIM14] | 4.41 ± 0.27 | 4.38 ± 0.21 |  | 
LAQIAEVLEMFDLRMMVENIMNKE [RHOBTB1] | 2.54 ± 0.35 | 2.22 ± 0.12 |  | 
LASAYTGRLSMAAADIVNFLTVGS [ZBTB22] | 2.77 ± 0.28 | 3.09 ± 0.66 |  | 
LAYGSVITVKNLRMAIGYLHSHRH [POMT2] | 2.53 ± 0.69 | 2.63 ± 0.65 |  | 
LCKVLGVLFSVAGGLFVGKEGPMI [CLCN6] | 2.73 ± 0.25 | 2.89 ± 0.5 |  | 
LCRAQRERLASANLRVLVDCILRD [TEKT4] | 2.08 ± 0.58 | 2.41 ± 0.21 |  | 
LCSDLEEAPEAELSQAPAEGPDLV [HES6] | 5.61 ± 0.12 | 5.57 ± 0.3 |  | 
LDDIYYFGGQNAHNQIAIYAHQPR [FUT8] | 2.87 ± 0.41 | 2.92 ± 0.39 |  | 
LDFLPKDVKKEKLSPDIMKDAYVQ [TENT5D] | 3.96 ± 0.14 | 3.78 ± 0.26 |  | 
LDKELRAMLREKFPEFCSSPSPPV [INTS3] | 3.22 ± 0.31 | 3.42 ± 0.31 |  | 
LDLMKEWIAHSEKLPRKVLQHVSE [SPACA9] | 3 ± 0.36 | 3.67 ± 0.47 |  | 

Sequence | protein stability index [1] | protein stability index [2] | protein stability index [3] | protein stability index [4]
LDPQPITDEEEGLIWVVGPVLAVV [PTPRD] | 2.02 ± 0.41 | 2.42 ± 0.27 |  | 
LDRFLSLEPVKKSRLQLLGATCMF [CCND1] | 2.42 ± 0.36 | 2.39 ± 0.14 |  | 
LEFLLALYFLFADAMQLNDKWQGL [CMTM3] | 2.77 ± 0.45 | 2.8 ± 0.93 |  | 
LEGALHQAKEELARMLREYQELMS [KRT71] | 2.98 ± 0.3 | 3.48 ± 0.46 |  | 
LEKKNEALKERADSLAKEIQYLKD [ATF4] | 4.53 ± 0.24 | 4.45 ± 0.056 |  | 
LEKNHPEEFCEFVKSNTEQMREAF [ZBED1] | 4.58 ± 0.13 | 4.63 ± 0.16 |  | 
LELPEDEEEKKKMEESKAKFENLC [HSP90AB1] | 5.46 ± 0.42 | 5.3 ± 0.33 |  | 
LEMRRRCTWSIFQSIEYAGQQDQV [PPEF2] | 1.92 ± 0.52 | 2.25 ± 0.1 |  | 
LESRIRDVHELFLQMAVLVEKQAD [STX11] | 2.27 ± 0.35 | 2.37 ± 0.34 |  | 
LEVPKPGQPSEPEHGPSPGQDTFC [CHIT1] | 5.22 ± 0.17 | 5.23 ± 0.19 |  | 
LGDMQTAREGAGLVVASGVIYCLG [KLHL12] | 2.47 ± 0.45 | 2.29 ± 0.8 |  | 
LGDSGLGPWQLNVFVCRVSAVLFY [P2RY14] | 3.32 ± 0.17 | 2.84 ± 0.42 |  | 
LGLRQHHCRKCGQAVCGKCSSKRS [WDFY1] | 4.28 ± 0.29 | 4.26 ± 0.29 |  | 
LGNLVEGLDFHRFYFENLWSRNSK [CAMK2A] | 2.2 ± 0.47 | 2.51 ± 0.24 |  | 
LGQILVSVAGWSLFSLNVISLTCV [SLC19A2] | 3.3 ± 0.26 | 3.21 ± 0.47 |  | 
LGQIVLLPAEARERSRGRSISRGR [MATN2] | 3.86 ± 0.45 | 4.21 ± 0.18 |  | 
LGRMFGSGREHNFTRPNEKGEYEV [BTBD10] | 3.95 ± 0.08 | 3.98 ± 0.25 |  | 
LGYQAVPSGSSGSLSTSSSSSPPG [CEBPB] | 4.78 ± 0.12 | 4.85 ± 0.14 |  | 
LHESYCMDTSHQPLLPAPPKTPMD [LYSMD4] | 4.65 ± 0.27 | 4.59 ± 0.11 |  | 
LHSSILTCTLLLLYSLAPTMGAVV [MFSD9] | 3.36 ± 0.4 | 2.94 ± 0.24 |  | 
LHYGLPVVVKLLHPPSHWPLIKAT [CTNNB1] | 2.3 ± 0.45 | 2.46 ± 0.42 |  | 
LIWSYPAGSLTFPVRPFFYTGHR [TRIM43] |  |  | 1.97 ± 0.37 | 2.15 ± 0.11
LKATFSGFTKEQQRLGIPKDPRQW [ETS1] | 2.75 ± 0.25 | 2.82 ± 0.36 |  | 

Sequence | protein stability index [1] | protein stability index [2] | protein stability index [3] | protein stability index [4]
LKFDNSYSLWRSKSVYYRVYYTR [ACBD3] |  |  | 2.52 ± 0.6 | 2.29 ± 0.71
LKKIKEKDKENKFLCVLMSDWFNF [CLK3] | 2.14 ± 0.36 | 2.24 ± 0.24 |  | 
LKNPFFRYTGTTPSPPPGSHYTSP [CARM1] | 2.9 ± 0.16 | 3.16 ± 0.25 |  | 
LKSISAEEILTLFCGAPPVTPIIV [PHTF1] | 3.16 ± 0.29 | 2.62 ± 0.53 |  | 
LKSLIRLVKHWYQNCKKKLGKLPP [OAS1] | 2.94 ± 0.36 | 3.02 ± 0.25 |  | 
LLAEREQEEAIAQFPYVEFTGRDS [TMEM106C] | 4.6 ± 0.27 | 4.72 ± 0.13 |  | 
LLAPEAGSHPQQTQKLEEIKENAQ [TOR1AIP2] | 5.44 ± 0.097 | 5.47 ± 0.25 |  | 
LLCVNYFFYGETVTDYFFTLVQRE [CDS2] | 2.9 ± 0.36 | 3.2 ± 0.41 |  | 
LLEKNASVNEVDFEGRTPMHVACQ [RIPK4] | 3.83 ± 0.31 | 3.94 ± 0.16 |  | 
LLGWGYYLIMLPFRFTYYTILDIF [FAF2] | 4.59 ± 0.36 | 4.7 ± 0.17 |  | 
LLIYTVKIRRFNKAKPEPDILEEE [TMEM192] | 2.31 ± 0.32 | 2.29 ± 0.31 |  | 
LLKFDNSYSLWRSKSVYYRVYYTR [ACBD3] | 2.41 ± 0.55 | 2.49 ± 0.54 |  | 
LLLCLKVDNHFNLLTTSPVFPHYI [TRIM43] | 3.03 ± 0.52 | 3.08 ± 0.64 |  | 
LLMAVVSMFTLPVVYVKHQAQIDQ [RTN1] | 2.99 ± 0.39 | 3.32 ± 0.43 |  | 
LLQRELMVPGTRHSAVLRDLRSGT [TNXB] | 2.43 ± 0.3 | 2.75 ± 0.28 |  | 
LLSSSEEECKDRERPMYGRDSAYQ [EMD] | 4.48 ± 0.23 | 4.51 ± 0.46 |  | 
LMDCCLIVYHPYRPLLQYVQDMGQ [CCNC] | 3.26 ± 0.83 | 3.17 ± 0.55 |  | 
LMKHKSRKRRLFCTMEPEPVQPGM [TRIM35] | 3.51 ± 0.49 | 3.43 ± 0.17 |  | 
LMLGKTSISDLSEHVFDLILELYN [PDS5B] | 2.59 ± 0.33 | 2.44 ± 0.47 |  | 
LNAELEEKMMQEAEKLKAQGEYSR [CCDC89] | 3.61 ± 0.28 | 3.71 ± 0.39 |  | 
LNTLTLNVKSEKVYTRHGVPISVT [FLOT1] | 2.51 ± 0.079 | 2.61 ± 0.21 |  | 
LNYLRDGSVPLPESTRELGELLGE [KCTD13] | 4.5 ± 0.21 | 4.64 ± 0.24 |  | 
LPNHKPKGTFKDYVRDRADLNKDK [ETS1] | 4.552 ± 0.017 | 4.74 ± 0.32 |  | 

Sequence | protein stability index [1] | protein stability index [2] | protein stability index [3] | protein stability index [4]
LPQPLAAHAGAVHNGKIYISGGVH [KLHL14] | 3.17 ± 0.24 | 3.27 ± 0.3 |  | 
LPSNLVQYYDDEKKTWKILTIMPY [KLHL14] | 2.42 ± 0.33 | 2.3 ± 0.12 |  | 
LPVLRGFPAKYIYDPWNAPEGIQK [CRY1] | 2.39 ± 0.17 | 2.28 ± 0.34 |  | 
LQSFEDLASISTYGFRGEALASIS [MLH1] | 2.78 ± 0.16 | 2.71 ± 0.3 |  | 
LQSISWDPEDFEDAWKRPDALPGQ [TLE6] | 3.98 ± 0.29 | 3.87 ± 0.43 |  | 
LQSLDDTELRLLGRTHSACDALRT [RSAD1] | 3.64 ± 0.2 | 3.85 ± 0.18 |  | 
LRAELQGHHAEKLPAGAGAPKAGL [TNFSF13B] | 4.34 ± 0.32 | 4.45 ± 0.35 |  | 
LRALKLVITALKCHKYDRNIQVTG [ZER1] | 3.14 ± 0.42 | 3.16 ± 0.65 |  | 
LRDKIMATTIDNSRVILEIDNARL [KRT15] | 2.59 ± 0.27 | 2.66 ± 0.2 |  | 
LRESIASYLSLTSEDNTSFDRKKK [SLA] | 3.9 ± 0.16 | 3.81 ± 0.15 |  | 
LRGALQQGEAFQRALESELQQLRA [PBXIP1] | 3.56 ± 0.24 | 3.67 ± 0.23 |  | 
LRGSYNSLHDGSDGLDGISVGSYL [LURAP1L] | 3.08 ± 0.24 | 3.1 ± 0.15 |  | 
LRVLGSMCQRLRSMQYNGSYFDRG [DFFB] | 2.14 ± 0.29 | 2.23 ± 0.17 |  | 
LSFAHANCTLIISYQKPKEVVVAE [DPCD] | 2.69 ± 0.84 | 2.79 ± 0.73 |  | 
LSFYNVTDRSHIYTFTDTFTEKLW [TRIM39] | 2.52 ± 0.31 | 2.3 ± 0.32 |  | 
LSIINFFERLCLTWMFFFMMCVAE [PHTF1] | 3.41 ± 1.2 | 2.81 ± 0.2 |  | 
LSKDHQEVETEGPESADTGDKSES [TOR1AIP2] | 5.67 ± 0.18 | 5.59 ± 0.19 |  | 
LSLEEELSRVKAAALSERGQAEEE [LRRC45] | 5.45 ± 0.2 | 5.37 ± 0.16 |  | 
LSQMGAQSSGKILLCPLCQEEEQA [TRIM15] | 3.85 ± 0.5 | 4.39 ± 0.23 |  | 
LSRLSVNSVTAGDYSRPLHISTFI [TSN] | 2.42 ± 0.61 | 2.31 ± 0.24 |  | 
